This assay has as its target T1, SARS-CoV-2 Wuhan-Hu-1 S蛋白 (Sino Biological，货号:40589-V08B1) (SARS-CoV-2 Wuhan-Hu-1, UniProt P0DTC2 14-1213).
T1 construct: extracellular domain
The assay can be described thus: ELISA, S protein coated at 2 μg/mL, antibody at 1 μg/mL. A general note: ELISA stands for enzyme-linked immunosorbent assay.

B1: 抗新型冠状病毒SARS-CoV-2的广谱抗体(VSM12-37) (antibody, V domains shown)
VH: EVQLVESGGGLVQPGGSLRLSCAVSGFTVSSNYMSWVRQAPGKGLEWVSLIYSGGSTYYADSVKGRFTVSRDRSKNTLYLQMNSLRAEDTALYYCARDNPRVGSNYWGQGTLVTVSS
VL: DIQMTQSPSSLSASVGDRVTITCQASQDINNYLNWYQQKPGKAPKLLIYDASNLEAGVPSRFSGSGSGTDFTFTISSLQPEDIATYYCQQCDNVPLTFGGGTKVEIKR
notes: also called VSM12-37抗体
Take B1: the binding result is recorded as “binds”.

The record behind these values is patent CN118388640A (CHENZHOU NO 1 PEOPLES HOSPITAL, dated 2024).
